Biological target: T1, extracellular domain of human CD47 (amino acids 1 to 119 of the mature protein, Cys15 to Ala) with Strep-tag … (human, UniProt Q08722 19-139)
T1 construct: Produced in the periplasm of E. coli JM83, purified by the Strep-tag II; 1-119 counts on the mature CD47; also called recombinant CD47
Assay: ELISA, CD47 coated on plate, mutein titrated from 2000 nM, anti-T7-HRP detection, apparent KD from curve fit
Protocol: For the detection of binding in an ELISA the wells of a black Fluotrac 600 microtiter plate (Greiner; 384 well) were filled each with 20 μl of a solution of the intended recombinant protein target CD47 (produced as described in Example 2) or the unrelated control protein BSA both at a concentration of 50 μg/ml in PBS and were incubated for 1 h at ambient temperature. After washing five times with 100 μl PBST/0.05 per well employing an automated ELISA plate washer, the wells were filled with 100 μl PBST/0.05 3% w/v non-fat dry milk powder (Vitalia), in order to saturate unspecific binding sites and incubated for one hour at room temperature. After blocking, the microtiter plate was washed two times with 100 μl PBST/0.05 as described above.
Then a dilution series of the muteins in SA-buffer from Example 7 was prepared in PBST starting from 2000 nM concentration and incubated for 1 h at room temperature. Subsequently, plates were washed again five times like above and 20 μl of an anti-T7 monoclonal antibody-HRP-conjugate, diluted 1:1000 in PBST, was added to each well and incubated for 1 hour at room temperature. […] After 10 minutes at room temperature fluorescence was excited at a wavelength of 320 nm (±12.5 nm) and measured at 430 nm (±17.5 nm) in a GENiosPlus plate reader. […]

T1 sequence (Q08722 other isoform, or with tags, fused parts or gaps limits assumed): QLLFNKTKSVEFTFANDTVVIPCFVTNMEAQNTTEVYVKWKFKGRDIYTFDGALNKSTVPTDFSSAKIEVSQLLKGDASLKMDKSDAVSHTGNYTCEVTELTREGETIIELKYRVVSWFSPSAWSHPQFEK

B1: BBP mutein CD47-G6 (designed binder)
chain: DVYHDGACPEVKPVDNFDWSQYHGKWWEVAKYPNRREKFGKCGWAEYTPEGKSVKVSNYHVIRWGERFIEGTAYPVGDSKIGKIYHSLTLPGYTKENVFNVLSTDNKNYIIGYYCKYLERLKGHADFVWVLSRSMVLTGEAKTAVENYLIGSPVVDSQKLVYSDFSEAACKVNN
- Kd: 33 nM
